Experimental data taken from patent US20170334947A1.

Tests used:
[1] = target: Fab fragment of anti-TNFα monoclonal antibody (generic name: Adalimumab) (humanized monoclonal IgG product (filing's words)); experiment: affinity chromatography, ligand […]-gel
[2] = target: Fab fragment of anti-TNFα monoclonal antibody (generic name: Adalimumab) (humanized monoclonal IgG product (filing's words)); experiment: affinity chromatography, ligand 2.0 mg/mL-gel
[3] = target: Fab fragment of anti-TNFα monoclonal antibody (generic name: Adalimumab) (humanized monoclonal IgG product (filing's words)); experiment: affinity chromatography, 55% DBC divided by immobilised ligand, 2.0 mg/mL-gel
[4] = target: Fab fragment of anti-TNFα monoclonal antibody (generic name: Adalimumab) (humanized monoclonal IgG product (filing's words)); experiment: affinity chromatography, Fab kept after 40 CV wash, ligand […]-gel, 10.5 mg Fab loaded
[5] = target: Fab fragment of anti-TNFα monoclonal antibody (generic name: Adalimumab) (humanized monoclonal IgG product (filing's words)); experiment: affinity chromatography, Fab kept after 40 CV wash, ligand 2.0 mg/mL-gel, 5.2 mg Fab loaded
[6] = target: Fab fragment of anti-TNFα monoclonal antibody (generic name: Adalimumab) (humanized monoclonal IgG product (filing's words)); experiment: affinity chromatography, Fab kept after 40 CV wash, ligand 2.0 mg/mL-gel, 4.8 mg Fab loaded
[7] = target: Fab fragment of anti-TNFα monoclonal antibody (generic name: Adalimumab) (humanized monoclonal IgG product (filing's words)); experiment: affinity chromatography, Protein-G Sepharose FF

55% DBC [1] [mg/mL-gel]	55% DBC [2] [mg/mL-gel]	Binding capacity per ligand density [3]	Recovery rate [4] [%]	Recovery rate [5] [%]	Recovery rate [6] [%]	55% DBC [7] [mg/mL-gel]	Substance
21	10.4	5.2	43	28	–	–	Pep-SpGβ1-Wild.2dC
–	9.7	–	–	–	6	–	Protein G ligand of the commercial carrier HiTrap Protein-G HP (GE Healthcare)
–	–	–	–	–	–	6.2	Protein G ligand of the commercial carrier Protein-G Sepharose FF (GE Healthcare)
